This note sets out measurements from publication PMC10581125.

This assay deals with Klebsiella phage GH-K3-derived depolymerase Depo32 (Klebsiella phage GH-K3). Kind of assay: cryo-EM structure; Depo32 purified by size exclusion chromatography, 0.5-1.0 mg/mL, on glow-discharged C-flat carbon grids; 2.46 Å nonsymmetrized and 2.32 Å C3-symmetrized maps; homotrimer. For orientation: Size exclusion chromatography separates by hydrodynamic size, large species first.

Regarding “Klebsiella phage GH-K3-derived depolymerase Depo32 (enzyme)”, the stoichiometry N was found to be 3.

By stoichiometry N is commonly meant the number of molecules, sites or subunits per partner or assembly.
